Target: inhibitor of nuclear factor kappa B kinase subunit beta (IKBKB), FLAG-tagged (UniProt O14920)
Test: TR-FRET protein-protein interaction assay (2B7-Tb/anti-FLAG-D2)
Details: peak of the lysate titration curve (mutant peak at about 3 ug/well, WT peak at about 5 ug/well); HEK293T lysates; parent: est. 0.30; read off a plot

Substance: N571 Q55 HTT (N-terminal huntingtin fragment 1-571 with 55 glutamines) S13A; S16A
- response (Fluorescence Ratio (665/615)): 0.26

Reference: publication PMC10410066
